Source: the supplement of paper PMC9112550, “Optimization of the antimicrobial peptide Bac7 by deep mutational scanning” (BMC Biology, 2022)

System: Escherichia coli TOP10
Assay: shrunken log2 fold change of peptide-encoding DNA abundance (4.5 h post-induction vs induction); higher = less antimicrobial activity (less host growth inhibition)
Details: time post-induction: 4.5 h; library: site-saturation at positions 5, 18, 19, 20
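Also: peptides expressed intracellularly from a pBAD plasmid library in pooled LB shake-flask culture, induced with 0.3% L-arabinose, DNA abundance read by NGS, three biological replicates, DESeq2 with apeglm shrinkage.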

| Sequence | shrunken log2 fold change |
| --- | --- |
| RRIRDRPPRLPRPRPRPPFNPRP | -0.217 |
| RRIRSRPPRLPRPRPRPKVPPRP | 0.0195 |
| RRIRRRPPRLPRPRPRPNQWPRP | 0.128 |
| RRIRYRPPRLPRPRPRPFPYPRP | -0.0356 |
| RRIRQRPPRLPRPRPRPYLGPRP | -0.0158 |
| RRIRLRPPRLPRPRPRPCANPRP | -0.212 |
| RRIRQRPPRLPRPRPRPFTAPRP | -0.183 |
| RRIRIRPPRLPRPRPRPAKFPRP | -0.158 |
| RRIRCRPPRLPRPRPRPNLDPRP | -0.478 |
| RRIRSRPPRLPRPRPRPLTHPRP | -0.569 |
| RRIRMRPPRLPRPRPRPYYEPRP | -0.28 |
| RRIRIRPPRLPRPRPRPFLFPRP | -0.586 |
| RRIRIRPPRLPRPRPRPFTFPRP | -0.148 |
| RRIRARPPRLPRPRPRPHNTPRP | -0.235 |
| RRIRWRPPRLPRPRPRPDFWPRP | 0.582 |
| RRIRWRPPRLPRPRPRPPPKPRP | 0.945 |
| RRIRTRPPRLPRPRPRPARKPRP | 0.179 |
| RRIRHRPPRLPRPRPRPEPDPRP | 0.257 |
| RRIRRRPPRLPRPRPRPPVHPRP | 0.197 |
| RRIRTRPPRLPRPRPRPVWMPRP | -0.0336 |
| RRIRLRPPRLPRPRPRPYDCPRP | 0.0192 |
| RRIRQRPPRLPRPRPRPYGFPRP | 0.0147 |
| RRIRARPPRLPRPRPRPGHCPRP | 0.0986 |
| RRIRCRPPRLPRPRPRPSFGPRP | -0.496 |
| RRIRKRPPRLPRPRPRPNMQPRP | 0.26 |

| Sequence | shrunken log2 fold change |
| --- | --- |
| RRIRVRPPRLPRPRPRPLAHPRP | 0.00485 |
| RRIRPRPPRLPRPRPRPIFYPRP | -0.102 |
| RRIRIRPPRLPRPRPRPSYYPRP | -1.34 |
| RRIRIRPPRLPRPRPRPYSSPRP | -0.239 |
| RRIRQRPPRLPRPRPRPKQLPRP | -0.156 |
| RRIRARPPRLPRPRPRPDGWPRP | 1.22 |
| RRIRLRPPRLPRPRPRPIDIPRP | 0.00368 |
| RRIRPRPPRLPRPRPRPKIGPRP | 0.0118 |
| RRIRVRPPRLPRPRPRPKATPRP | 0.266 |
| RRIRIRPPRLPRPRPRPSLHPRP | -0.824 |
| RRIRKRPPRLPRPRPRPNNQPRP | -0.219 |
| RRIRCRPPRLPRPRPRPFAGPRP | -0.175 |
| RRIRERPPRLPRPRPRPPDMPRP | -0.332 |
| RRIRSRPPRLPRPRPRPYPLPRP | -0.105 |
| RRIRRRPPRLPRPRPRPVNAPRP | 0.37 |
| RRIRVRPPRLPRPRPRPTHTPRP | 0.0927 |
| RRIRRRPPRLPRPRPRPFGLPRP | -0.0905 |
| RRIRGRPPRLPRPRPRPNRRPRP | 0.332 |
| RRIRYRPPRLPRPRPRPSHAPRP | -0.242 |
| RRIRKRPPRLPRPRPRPKREPRP | 0.393 |
| RRIRLRPPRLPRPRPRPMVQPRP | -0.147 |
| RRIRPRPPRLPRPRPRPTKAPRP | -0.191 |
| RRIRKRPPRLPRPRPRPNFDPRP | 0.367 |
| RRIRMRPPRLPRPRPRPHETPRP | -0.00213 |
| RRIRQRPPRLPRPRPRPMPYPRP | -0.0574 |

| Sequence | shrunken log2 fold change |
| --- | --- |
| RRIRTRPPRLPRPRPRPNTYPRP | -0.614 |
| RRIRDRPPRLPRPRPRPIPAPRP | 0.0318 |
| RRIRGRPPRLPRPRPRPMMFPRP | 0.69 |
| RRIRRRPPRLPRPRPRPGCGPRP | 0.657 |
| RRIRIRPPRLPRPRPRPFRHPRP | -0.219 |
| RRIRGRPPRLPRPRPRPGTAPRP | 2.14 |
| RRIRHRPPRLPRPRPRPWSVPRP | -0.125 |
| RRIRDRPPRLPRPRPRPVAYPRP | -0.0825 |
| RRIRLRPPRLPRPRPRPWCGPRP | -0.0859 |
| RRIRFRPPRLPRPRPRPYGSPRP | -0.182 |
| RRIRDRPPRLPRPRPRPATDPRP | 0.0254 |
| RRIRSRPPRLPRPRPRPIWQPRP | -0.0554 |
| RRIRWRPPRLPRPRPRPMKIPRP | -0.0129 |
| RRIRLRPPRLPRPRPRPNDDPRP | -0.248 |
| RRIRSRPPRLPRPRPRPWHNPRP | -0.00544 |
| RRIRCRPPRLPRPRPRPHWFPRP | -0.0681 |
| RRIRFRPPRLPRPRPRPRPKPRP | 0.98 |
| RRIRMRPPRLPRPRPRPRGKPRP | 0.97 |
| RRIRHRPPRLPRPRPRPTQHPRP | -0.0131 |
| RRIRFRPPRLPRPRPRPDKIPRP | -0.0546 |
| RRIRPRPPRLPRPRPRPPGHPRP | 0.371 |
| RRIRARPPRLPRPRPRPNPPPRP | 0.458 |
| RRIRRRPPRLPRPRPRPMWWPRP | 0.291 |
| RRIRFRPPRLPRPRPRPCLLPRP | -1.19 |
| RRIRMRPPRLPRPRPRPELYPRP | 0.0658 |

| Sequence | shrunken log2 fold change |
| --- | --- |
| RRIRDRPPRLPRPRPRPRRFPRP | 0.212 |
| RRIRSRPPRLPRPRPRPDKYPRP | -0.845 |
| RRIRNRPPRLPRPRPRPYYVPRP | -0.207 |
| RRIRSRPPRLPRPRPRPAHGPRP | 0.153 |
| RRIRWRPPRLPRPRPRPNTTPRP | -0.418 |
| RRIRLRPPRLPRPRPRPQKQPRP | 0.17 |
| RRIRPRPPRLPRPRPRPESNPRP | 0.0165 |
| RRIRWRPPRLPRPRPRPHVFPRP | -0.154 |
| RRIRPRPPRLPRPRPRPWKVPRP | -0.0967 |
| RRIRFRPPRLPRPRPRPNCWPRP | -0.358 |
| RRIRPRPPRLPRPRPRPVYWPRP | -0.139 |
| RRIRKRPPRLPRPRPRPRPHPRP | 0.762 |
| RRIRQRPPRLPRPRPRPRNKPRP | -0.68 |
| RRIRDRPPRLPRPRPRPKADPRP | -0.0266 |
| RRIRDRPPRLPRPRPRPREKPRP | 0.342 |
| RRIRARPPRLPRPRPRPTLCPRP | 0.392 |
| RRIRERPPRLPRPRPRPFTPPRP | 0.116 |
| RRIRRRPPRLPRPRPRPHMGPRP | -0.15 |
| RRIRSRPPRLPRPRPRPRVNPRP | -0.189 |
| RRIRARPPRLPRPRPRPMNWPRP | 0.351 |
| RRIRGRPPRLPRPRPRPYPEPRP | 0.0556 |
| RRIRFRPPRLPRPRPRPHRLPRP | 0.0835 |
| RRIRDRPPRLPRPRPRPTLEPRP | 1.06 |
| RRIRHRPPRLPRPRPRPMWGPRP | -0.234 |
| RRIRQRPPRLPRPRPRPIARPRP | -0.0171 |

| Sequence | shrunken log2 fold change |
| --- | --- |
| RRIRCRPPRLPRPRPRPHTHPRP | -0.676 |
| RRIRCRPPRLPRPRPRPVMLPRP | -0.433 |
| RRIRQRPPRLPRPRPRPAWIPRP | -0.0396 |
| RRIRPRPPRLPRPRPRPFPFPRP | -0.00615 |
| RRIRKRPPRLPRPRPRPPMYPRP | -0.0675 |
| RRIRSRPPRLPRPRPRPRWRPRP | 0.375 |
| RRIRARPPRLPRPRPRPEYHPRP | 0.0454 |
| RRIRGRPPRLPRPRPRPTCRPRP | 0.825 |
| RRIRCRPPRLPRPRPRPNEFPRP | 0.159 |
| RRIRTRPPRLPRPRPRPCEHPRP | 0.00673 |
| RRIRCRPPRLPRPRPRPEKIPRP | 0.117 |
| RRIRQRPPRLPRPRPRPVEHPRP | -0.00992 |
| RRIRDRPPRLPRPRPRPYMIPRP | -0.587 |
| RRIRTRPPRLPRPRPRPRMNPRP | -0.133 |
| RRIRERPPRLPRPRPRPAMYPRP | -0.205 |
| RRIRRRPPRLPRPRPRPRMCPRP | 0.17 |
| RRIRIRPPRLPRPRPRPEIDPRP | -0.157 |
| RRIRHRPPRLPRPRPRPTCWPRP | -0.0322 |
| RRIRGRPPRLPRPRPRPPIKPRP | 0.403 |
| RRIRKRPPRLPRPRPRPQVSPRP | -0.0595 |
| RRIRPRPPRLPRPRPRPAQTPRP | 0.177 |
| RRIRHRPPRLPRPRPRPWVVPRP | -0.48 |
| RRIRYRPPRLPRPRPRPQFTPRP | -0.308 |
| RRIRTRPPRLPRPRPRPKKRPRP | 0.0216 |
| RRIRLRPPRLPRPRPRPEKWPRP | -0.0497 |

| Sequence | shrunken log2 fold change |
| --- | --- |
| RRIRQRPPRLPRPRPRPAFWPRP | 0.382 |
| RRIRTRPPRLPRPRPRPCLPPRP | -0.0953 |
| RRIRFRPPRLPRPRPRPQWYPRP | -0.981 |
| RRIRWRPPRLPRPRPRPLRLPRP | 0.804 |
| RRIRIRPPRLPRPRPRPETPPRP | 0.207 |
| RRIRHRPPRLPRPRPRPTESPRP | 0.0139 |
| RRIRTRPPRLPRPRPRPVDQPRP | -0.123 |
| RRIRWRPPRLPRPRPRPYIGPRP | -0.127 |
| RRIRPRPPRLPRPRPRPPHRPRP | 0.401 |
| RRIRARPPRLPRPRPRPWWTPRP | 0.239 |
| RRIRHRPPRLPRPRPRPYISPRP | -0.0543 |
| RRIRNRPPRLPRPRPRPLEGPRP | 0.033 |
| RRIRGRPPRLPRPRPRPTCYPRP | 0.34 |
| RRIRTRPPRLPRPRPRPAETPRP | 0.139 |
| RRIRYRPPRLPRPRPRPWMAPRP | -0.288 |
| RRIRSRPPRLPRPRPRPYDYPRP | -0.305 |
| RRIRIRPPRLPRPRPRPFYLPRP | -0.882 |
| RRIRERPPRLPRPRPRPFYTPRP | -0.629 |
| RRIRGRPPRLPRPRPRPVQHPRP | 0.542 |
| RRIRWRPPRLPRPRPRPMSAPRP | 0.338 |
| RRIRIRPPRLPRPRPRPFKCPRP | 0.000802 |
| RRIRWRPPRLPRPRPRPVDVPRP | -0.0135 |
| RRIRRRPPRLPRPRPRPDEGPRP | -0.00319 |
| RRIRMRPPRLPRPRPRPHGMPRP | -0.0062 |
| RRIRYRPPRLPRPRPRPFESPRP | -0.0101 |
